The assay deals with polypeptides with a terminal leucine residue. Kind of assay: single-molecule dwell time analysis, distribution of mean pulse durations, Leu; filtered 0.00s≤dur≤20.00s and magnitude above baseline > 15.0.

B1: S. elongatus ClpS2 (protein)
chain: MSPQPDESVLSILGVPRPCVKKRSRNDAFVLTVLTCSLQAIAAPATAPGTTTTRVRQPYPHFRVIVLDDDVNTFQHVAECLLKYIPGMTGDRAWDLTNQVHYEGAATVWSGPQEQAELYHEQLRREGLTMAPLEAA
Molecule B1 had a mean pulse duration (value at the dashed line) of 0.35 s.
